Measurements published in patent US20110065176A1.

Biological target: KDR(ECD1-3)-Fc (human) (UniProt P35968)
Assay: BIAcore; KDR(ECD1-3)-Fc immobilized on CM5 chip, IgG in flow

Sequence of KDR(ECD1-3)-Fc (human) (P35968 other isoform, or with tags, fused parts or gaps limits assumed, form in doubt): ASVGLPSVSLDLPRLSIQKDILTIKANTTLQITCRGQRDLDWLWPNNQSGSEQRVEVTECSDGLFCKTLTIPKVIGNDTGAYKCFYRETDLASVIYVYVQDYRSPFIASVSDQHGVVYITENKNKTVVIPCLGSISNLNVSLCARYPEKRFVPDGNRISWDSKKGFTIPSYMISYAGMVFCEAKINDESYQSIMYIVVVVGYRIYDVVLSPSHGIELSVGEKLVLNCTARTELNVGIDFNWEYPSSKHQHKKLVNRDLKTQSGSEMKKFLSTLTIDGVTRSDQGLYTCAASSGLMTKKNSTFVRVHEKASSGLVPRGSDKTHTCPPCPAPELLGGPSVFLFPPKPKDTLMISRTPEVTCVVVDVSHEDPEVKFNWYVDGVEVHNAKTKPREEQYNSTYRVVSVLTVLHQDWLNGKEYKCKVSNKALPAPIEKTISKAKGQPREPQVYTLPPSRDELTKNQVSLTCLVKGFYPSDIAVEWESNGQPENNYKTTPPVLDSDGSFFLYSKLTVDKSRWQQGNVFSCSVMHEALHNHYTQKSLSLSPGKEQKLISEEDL

Substance IMC-1121 IgG (reconstructed) (antibody) has a Kd of 0.385 nM, a koff of 8.75e-05 s⁻¹ and a kon of 227000 M⁻¹ s⁻¹.
